Data reported in article PMC7749165, “The δ subunit and NTPase HelD institute a two-pronged mechanism for RNA polymerase recycling” (Nature Communications, 2020).

T1: HelD (recombinant B. subtilis NTPase HelD) (Bacillus subtilis (strain 168), UniProt O32215)
T1 chain: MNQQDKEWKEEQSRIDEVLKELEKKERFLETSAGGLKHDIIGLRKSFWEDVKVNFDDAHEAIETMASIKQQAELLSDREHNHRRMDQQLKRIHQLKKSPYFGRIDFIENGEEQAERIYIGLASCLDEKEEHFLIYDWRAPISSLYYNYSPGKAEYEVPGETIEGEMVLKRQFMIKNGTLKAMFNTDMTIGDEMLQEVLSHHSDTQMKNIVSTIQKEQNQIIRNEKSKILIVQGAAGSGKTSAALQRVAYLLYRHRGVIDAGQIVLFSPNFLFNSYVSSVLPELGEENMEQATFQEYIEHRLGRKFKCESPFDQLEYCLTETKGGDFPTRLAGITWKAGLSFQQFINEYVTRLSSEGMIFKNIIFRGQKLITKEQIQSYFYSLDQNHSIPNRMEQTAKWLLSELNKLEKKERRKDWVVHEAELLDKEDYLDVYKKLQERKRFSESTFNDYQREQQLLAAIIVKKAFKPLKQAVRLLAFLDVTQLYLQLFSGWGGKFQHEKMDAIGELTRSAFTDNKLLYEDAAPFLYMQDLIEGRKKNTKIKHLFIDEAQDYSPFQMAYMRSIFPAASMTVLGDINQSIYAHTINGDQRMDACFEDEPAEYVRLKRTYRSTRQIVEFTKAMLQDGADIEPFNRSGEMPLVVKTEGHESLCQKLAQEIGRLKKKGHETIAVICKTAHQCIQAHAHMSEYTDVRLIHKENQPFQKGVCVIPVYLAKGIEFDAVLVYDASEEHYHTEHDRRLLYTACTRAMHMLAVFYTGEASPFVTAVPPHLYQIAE

B1: RNAP α subunit (natural protein, B. subtilis (endogenous), UniProt P20429 1-314, looked up)
chain: MIEIEKPKIETVEISDDAKFGKFVVEPLERGYGTTLGNSLRRILLSSLPGAAVTSIQIDGVLHEFSTIEGVVEDVTTIILHIKKLALKIYSDEEKTLEIDVQGEGTVTAADITHDSDVEILNPDLHIATLGENASFRVRLTAQRGRGYTPADANKRDDQPIGVIPIDSIYTPVSRVSYQVENTRVGQVANYDKLTLDVWTDGSTGPKEAIALGSKILTEHLNIFVGLTDEAQHAEIMVEKEEDQKEKVLEMTIEELDLSVRSYNCLKRAGINTVQELANKTEEDMMKVRNLGRKSLEEVKAKLEELGLGLRKDD
notes: RNAP α subunit, B. subtilis; only the N-terminal domains have density in the structures; also called α1; α2; source: endogenous, B. subtilis; in lysate and purified as part of RNAP
B2: RNAP β subunit (natural protein, B. subtilis (endogenous), UniProt P37870 1-1193, looked up)
chain: MTGQLVQYGRHRQRRSYARISEVLELPNLIEIQTSSYQWFLDEGLREMFQDISPIEDFTGNLSLEFIDYSLGEPKYPVEESKERDVTYSAPLRVKVRLINKETGEVKDQDVFMGDFPIMTDTGTFIINGAERVIVSQLVRSPSVYFSGKVDKNGKKGFTATVIPNRGAWLEYETDAKDVVYVRIDRTRKLPVTVLLRALGFGSDQEILDLIGENEYLRNTLDKDNTENSDKALLEIYERLRPGEPPTVENAKSLLDSRFFDPKRYDLANVGRYKINKKLHIKNRLFNQRLAETLVDPETGEILAEKGQILDRRTLDKVLPYLENGIGFRKLYPNGGVVEDEVTLQSIKIFAPTDQEGEQVINVIGNAYIEEEIKNITPADIISSISYFFNLLHGVGDTDDIDHLGNRRLRSVGELLQNQFRIGLSRMERVVRERMSIQDTNTITPQQLINIRPVIASIKEFFGSSQLSQFMDQTNPLAELTHKRRLSALGPGGLTRERAGMEVRDVHYSHYGRMCPIETPEGPNIGLINSLSSYAKVNRFGFIETPYRRVDPETGKVTGRIDYLTADEEDNYVVAQANARLDDEGAFIDDSIVARFRGENTVVSRNRVDYMDVSPKQVVSAATACIPFLENDDSNRALMGANMQRQAVPLMQPEAPFVGTGMEYVSGKDSGAAVICKHPGIVERVEAKNVWVRRYEEVDGQKVKGNLDKYSLLKFVRSNQGTCYNQRPIVSVGDEVVKGEILADGPSMELGELALGRNVMVGFMTWDGYNYEDAIIMSERLVKDDVYTSIHIEEYESEARDTKLGPEEITRDIPNVGEDALRNLDDRGIIRIGAEVKDGDLLVGKVTPKGVTELTAEERLLHAIFGEKAREVRDTSLRVPHGGGGIIHDVKVFNREDGDELPPGVNQLVRVYIVQKRKISEGDKMAGRHGNKGVISKILPEEDMPYLPDGTPIDIMLNPLGVPSRMNIGQVLELHMGMAARYLGIHIASPVFDGAREEDVWETLEEAGMSRDAKTVLYDGRTGEPFDNRVSVGIMYMIKLAHMVDDKLHARSTGPYSLVTQQPLGGKAQFGGQRFGEMEVWALEAYGAAYTLQEILTVKSDDVVGRVKTYEAIVKGDNVPEPGVPESFKVLIKELQSLGMDVKILSGDEEEIEMRDLEDEEDAKQADGLALSGDEEPEETASADVERDVVTKE
notes: RNAP β subunit, B. subtilis; source: endogenous, B. subtilis; in lysate and purified as part of RNAP
B3: RNAP δ subunit, endogenous (natural protein, B. subtilis (endogenous), UniProt P12464 1-173, looked up)
chain: MGIKQYSQEELKEMALVEIAHELFEEHKKPVPFQELLNEIASLLGVKKEELGDRIAQFYTDLNIDGRFLALSDQTWGLRSWYPYDQLDEETQPTVKAKKKKAKKAVEEDLDLDEFEEIDEDDLDLDEVEEELDLEADDFDEEDLDEDDDDLEIEEDIIDEDDEDYDDEEEEIK
notes: RNAP δ subunit, B. subtilis; NTD residues 1-90, CTR residues 91-173; source: endogenous, B. subtilis MH5636 or LK782; in lysate and purified as part of RNAP
B4: δ^NTD (N-terminal domain of the RNAP δ subunit) (protein)
chain: MGIKQYSQEELKEMALVEIAHELFEEHKKPVPFQELLNEIASLLGVKKEELGDRIAQFYTDLNIDGRFLALSDQTWGLRSWYPYDQLDEE

How the values were obtained:
[1] = molecular target: T2, RNAP β′ subunit with chromosomally encoded C-terminal His10-tag (B. subtilis, UniProt P37871 1-1199); experiment: co-purification; RNAP captured from lysates of stationary phase B. subtilis by the C-terminal His10-tag on β′ (Ni-NTA), then heparin column and SEC, 4 °C; content of the fractions told from gels (strains MH5636, LK782, LK1032); details: partners not purified
T2 construct: RNAP β′ subunit, B. subtilis; source: B. subtilis strains MH5636, LK782, LK1032; in lysate and purified as part of RNAP (Ni-NTA, heparin, SEC); not shown: His10, C-terminal, kept
T2 sequence (P37871 whole entry): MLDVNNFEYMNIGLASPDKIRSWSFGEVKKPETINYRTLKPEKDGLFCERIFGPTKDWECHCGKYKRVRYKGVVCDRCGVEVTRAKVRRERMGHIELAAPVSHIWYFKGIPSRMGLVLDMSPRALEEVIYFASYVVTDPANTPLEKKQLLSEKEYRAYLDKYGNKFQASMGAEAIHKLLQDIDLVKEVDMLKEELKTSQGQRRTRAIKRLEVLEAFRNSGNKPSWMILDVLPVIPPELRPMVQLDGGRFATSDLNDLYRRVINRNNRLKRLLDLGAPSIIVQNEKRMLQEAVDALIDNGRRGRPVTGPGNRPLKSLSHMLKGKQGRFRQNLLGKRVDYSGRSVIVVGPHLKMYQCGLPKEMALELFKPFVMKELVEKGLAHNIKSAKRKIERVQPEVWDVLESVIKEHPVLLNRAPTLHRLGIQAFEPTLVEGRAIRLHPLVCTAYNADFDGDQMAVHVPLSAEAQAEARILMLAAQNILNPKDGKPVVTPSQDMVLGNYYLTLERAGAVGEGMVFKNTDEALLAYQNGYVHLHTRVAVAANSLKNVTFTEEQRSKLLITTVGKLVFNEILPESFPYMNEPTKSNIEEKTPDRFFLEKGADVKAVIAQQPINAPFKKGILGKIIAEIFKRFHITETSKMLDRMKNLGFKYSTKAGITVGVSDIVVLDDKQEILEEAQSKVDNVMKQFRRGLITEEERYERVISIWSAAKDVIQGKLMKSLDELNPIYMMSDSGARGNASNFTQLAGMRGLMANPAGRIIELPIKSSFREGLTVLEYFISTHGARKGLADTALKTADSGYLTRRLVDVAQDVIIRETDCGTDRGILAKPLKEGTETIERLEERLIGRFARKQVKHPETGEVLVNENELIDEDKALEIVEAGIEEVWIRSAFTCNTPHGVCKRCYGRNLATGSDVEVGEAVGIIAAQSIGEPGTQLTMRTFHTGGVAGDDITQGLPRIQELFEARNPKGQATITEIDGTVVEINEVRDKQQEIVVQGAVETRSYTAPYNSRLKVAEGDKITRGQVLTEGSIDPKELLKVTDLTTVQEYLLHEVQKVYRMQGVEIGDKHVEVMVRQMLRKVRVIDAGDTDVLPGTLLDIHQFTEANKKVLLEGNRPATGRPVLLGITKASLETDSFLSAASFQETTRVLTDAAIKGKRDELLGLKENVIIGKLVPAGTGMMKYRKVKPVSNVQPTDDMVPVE

[2] = molecular target: T1, HelD (recombinant B. subtilis NTPase …); experiment: analytical SEC with SDS-PAGE
[3] = molecular target: T2, RNAP β′ subunit with chromosomally …; experiment: SEC; HelD release assay: the same RNAP-HelD complex mixed with 5 mM Mg^2+-ATPγS, AMPPNP or ATP in buffer I; Superdex 200 Increase PC 3.2, 4 °C; fractions on SDS-PAGE; details: both partners purified

Binder	binding result [1]	binding result [2]	binding result [3]
B1	binds		
B2	binds		
B3		binds	binds
B4		no binding	
